First the molecules themselves.
B1: DCAF4 (parent)
chain: PGIDRPGMLCSFRIPGAWSCAWSL

For 94 variants, protein stability index results are on record in the supplement of paper PMC10567573.
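Also: lentivirally expressed fusions sorted by FACS into six bins by GFP to DsRed ratio, PSI derived from sequencing read proportions per bin multiplied by bin number.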

Variants of B1 are the subject of this series. In words: protein stability index of a GFP-peptide fusion (GPS, HEK-293T) (PSI 1-6); higher = more stable. The conditions noted are these: c terminus: a fixed tail appended.
For the variant PGIDRPGMLCSFRIPGAWYCAWSL [S19Y], the protein stability index worked out at 3.36.

As for PGIDRPGMLCSFRIPGAWECAWSL [S19E], the protein stability index turned out to be 2.19.

PGIDRPGMLCSFRIPGAWICAWSL [S19I]: the protein stability index turned out to be 2.23.

Regarding PGIDRPGMLCSFRIPGAWWCAWSL [S19W], the protein stability index was 4.15.

For the variant PGIDRPGMLCSFRIPGAWKCAWSL [S19K], the protein stability index was 4.35.

Consider PGIDRPGMLCSFRIPGAWPCAWSL [S19P], for which the protein stability index came to 1.66.

For PGIDRPGMLCSFRIPGAWACAWSL [S19A], the protein stability index was 3.16.

For the variant PGIDRPGMLCSFRIPGAWHCAWSL [S19H], the protein stability index turned out to be 1.6.

With PGIDRPGMLCSFRIPGAWMCAWSL [S19M], the protein stability index was 2.51.

With PGIDRPGMLCSFRIPGAWVCAWSL [S19V], the protein stability index turned out to be 1.55.

As to PGIDRPGMLCSFRIPGAWQCAWSL [S19Q], the protein stability index was 2.74.

PGIDRPGMLCSFRIPGAWLCAWSL [S19L]: the protein stability index came out at 2.61.

Turning to PGIDRPGMLCSFRIPGAWRCAWSL [S19R], the protein stability index stood at 3.46.

On to PGIDRPGMLCSFRIPGAWDCAWSL [S19D], for which the protein stability index came out at 2.11.

For the variant PGIDRPGMLCSFRIPGAWTCAWSL [S19T], the protein stability index came out at 2.96.

On to PGIDRPGMLCSFRIPGAWGCAWSL [S19G], for which the protein stability index is 2.78.

PGIDRPGMLCSFRIPGAVSCAWSL [W18V]: the protein stability index turned out to be 3.98.

Regarding PGIDRPGMLCSFRIPGAMSCAWSL [W18M], the protein stability index is 2.71.

Consider PGIDRPGMLCSFRIPGANSCAWSL [W18N], for which the protein stability index is 2.54.

Regarding PGIDRPGMLCSFRIPGAASCAWSL [W18A], the protein stability index is 3.12.

Regarding PGIDRPGMLCSFRIPGARSCAWSL [W18R], the protein stability index worked out at 3.25.

In the case of PGIDRPGMLCSFRIPGAPSCAWSL [W18P], the protein stability index amounted to 2.33.

For PGIDRPGMLCSFRIPGALSCAWSL [W18L], the protein stability index came out at 2.87.

On to PGIDRPGMLCSFRIPGADSCAWSL [W18D], for which the protein stability index worked out at 1.76.

As for PGIDRPGMLCSFRIPGAGSCAWSL [W18G], the protein stability index was found to be 2.18.

PGIDRPGMLCSFRIPGAQSCAWSL [W18Q]: the protein stability index was determined as 2.21.

Turning to PGIDRPGMLCSFRIPGAHSCAWSL [W18H], the protein stability index came to 2.73.

In the case of PGIDRPGMLCSFRIPGAYSCAWSL [W18Y], the protein stability index amounted to 3.06.

Turning to PGIDRPGMLCSFRIPGAKSCAWSL [W18K], the protein stability index came out at 2.9.

With PGIDRPGMLCSFRIPGAESCAWSL [W18E], the protein stability index was found to be 1.68.

Consider PGIDRPGMLCSFRIPGASSCAWSL [W18S], for which the protein stability index is 2.36.

On to PGIDRPGMLCSFRIPGATSCAWSL [W18T], for which the protein stability index came out at 2.63.

On to PGIDRPGMLCSFRIPGACSCAWSL [W18C], for which the protein stability index is 2.32.

For the variant PGIDRPGMLCSFRIPGAWSCKWSL [A21K], the protein stability index worked out at 3.64.

Take PGIDRPGMLCSFRIPGAWSCGWSL [A21G]: the protein stability index was 3.7.

On to PGIDRPGMLCSFRIPGAWSCYWSL [A21Y], for which the protein stability index came out at 4.31.

Consider PGIDRPGMLCSFRIPGAWSCCWSL [A21C], for which the protein stability index is 2.48.

With PGIDRPGMLCSFRIPGAWSCMWSL [A21M], the protein stability index worked out at 2.96.

Consider PGIDRPGMLCSFRIPGAWSCPWSL [A21P], for which the protein stability index is 2.54.

For the variant PGIDRPGMLCSFRIPGAWSCWWSL [A21W], the protein stability index came out at 2.83.

Consider PGIDRPGMLCSFRIPGAWSCTWSL [A21T], for which the protein stability index was 2.69.

In the case of PGIDRPGMLCSFRIPGAWSCVWSL [A21V], the protein stability index stood at 1.91.

PGIDRPGMLCSFRIPGAWSCFWSL [A21F]: the protein stability index was 2.37.

Consider PGIDRPGMLCSFRIPGAWSCLWSL [A21L], for which the protein stability index worked out at 2.32.

PGIDRPGMLCSFRIPGAWSCSWSL [A21S]: the protein stability index was determined as 2.99.

For the variant PGIDRPGMLCSFRIPGAWSCRWSL [A21R], the protein stability index was 2.22.

Take PGIDRPGMLCSFRIPGAWSCDWSL [A21D]: the protein stability index worked out at 3.1.

In the case of PGIDRPGMLCSFRIPGAWSCNWSL [A21N], the protein stability index amounted to 2.85.

Consider PGIDRPGMLCSFRIPGAWSCAPSL [W22P], for which the protein stability index was 1.19.

Turning to PGIDRPGMLCSFRIPGAWSCAMSL [W22M], the protein stability index was 3.58.

For the variant PGIDRPGMLCSFRIPGAWSCAVSL [W22V], the protein stability index was found to be 1.44.

Turning to PGIDRPGMLCSFRIPGAWSCAGSL [W22G], the protein stability index is 1.95.

As to PGIDRPGMLCSFRIPGAWSCAHSL [W22H], the protein stability index turned out to be 1.74.

Consider PGIDRPGMLCSFRIPGAWSCALSL [W22L], for which the protein stability index was 2.58.

As to PGIDRPGMLCSFRIPGAWSCADSL [W22D], the protein stability index was found to be 1.5.

PGIDRPGMLCSFRIPGAWSCACSL [W22C]: the protein stability index was 1.62.

As for PGIDRPGMLCSFRIPGAWSCAESL [W22E], the protein stability index was found to be 2.01.

PGIDRPGMLCSFRIPGAWSCANSL [W22N]: the protein stability index turned out to be 1.6.

Regarding PGIDRPGMLCSFRIPGAWSCAFSL [W22F], the protein stability index was found to be 2.7.

With PGIDRPGMLCSFRIPGAWSCASSL [W22S], the protein stability index stood at 1.33.

Consider PGIDRPGMLCSFRIPGAWSCARSL [W22R], for which the protein stability index came out at 2.27.

Turning to PGIDRPGMLCSFRIPGAWSCAISL [W22I], the protein stability index turned out to be 3.25.

For the variant PGIDRPGMLCSFRIPGAWSCAKSL [W22K], the protein stability index stood at 1.84.

In the case of PGIDRPGMLCSFRIPGAWSCAQSL [W22Q], the protein stability index is 3.24.

As to PGIDRPGMLCSFRIPGAWSCAASL [W22A], the protein stability index came out at 2.54.

With PGIDRPGMLCSFRIPGAWSCATSL [W22T], the protein stability index is 1.95.

Consider PGIDRPGMLCSFRMPGAWSCAWSL [I14M], for which the protein stability index stood at 1.82.

On to PGIDRPGMLCSFRGPGAWSCAWSL [I14G], for which the protein stability index was found to be 1.54.

As for PGIDRPGMLCSFRHPGAWSCAWSL [I14H], the protein stability index is 2.46.

Take PGIDRPGMLCSFREPGAWSCAWSL [I14E]: the protein stability index amounted to 1.76.

Take PGIDRPGMLCSFRYPGAWSCAWSL [I14Y]: the protein stability index was 2.14.

In the case of PGIDRPGMLCSFRSPGAWSCAWSL [I14S], the protein stability index amounted to 2.65.

For PGIDRPGMLCSFRKPGAWSCAWSL [I14K], the protein stability index was 1.68.

Regarding PGIDRPGMLCSFRFPGAWSCAWSL [I14F], the protein stability index is 2.32.

PGIDRPGMLCSFRWPGAWSCAWSL [I14W]: the protein stability index worked out at 2.12.

For PGIDRPGMLCSFRQPGAWSCAWSL [I14Q], the protein stability index is 2.64.

On to PGIDRPGMLCSFRLPGAWSCAWSL [I14L], for which the protein stability index came to 2.47.

Consider PGIDRPGMLCSFRRPGAWSCAWSL [I14R], for which the protein stability index was 3.12.

For PGIDRPGMLCSFRNPGAWSCAWSL [I14N], the protein stability index is 1.5.

Take PGIDRPGMLCSFRIMGAWSCAWSL [P15M]: the protein stability index came to 2.89.

Turning to PGIDRPGMLCSFRISGAWSCAWSL [P15S], the protein stability index is 2.74.

As for PGIDRPGMLCSFRIQGAWSCAWSL [P15Q], the protein stability index worked out at 4.94.

As to PGIDRPGMLCSFRICGAWSCAWSL [P15C], the protein stability index stood at 2.96.

For the variant PGIDRPGMLCSFRILGAWSCAWSL [P15L], the protein stability index was 2.04.

As for PGIDRPGMLCSFRINGAWSCAWSL [P15N], the protein stability index amounted to 2.56.

For PGIDRPGMLCSFRIIGAWSCAWSL [P15I], the protein stability index was 2.28.

Regarding PGIDRPGMLCSFRIVGAWSCAWSL [P15V], the protein stability index stood at 1.8.

PGIDRPGMLCSFRIHGAWSCAWSL [P15H]: the protein stability index was 3.44.

As to PGIDRPGMLCSFRIKGAWSCAWSL [P15K], the protein stability index was 3.5.

For PGIDRPGMLCSFRIEGAWSCAWSL [P15E], the protein stability index was determined as 3.99.

In the case of PGIDRPGMLCSFRIFGAWSCAWSL [P15F], the protein stability index is 3.83.

PGIDRPGMLCSFRIYGAWSCAWSL [P15Y]: the protein stability index came to 3.12.

Turning to PGIDRPGMLCSFRIPGFWSCAWSL [A17F], the protein stability index came out at 2.16.

For the variant PGIDRPGMLCSFRIPGQWSCAWSL [A17Q], the protein stability index was found to be 2.13.
